Test results taken from US12297449, “Engineered CAS9 systems for eukaryotic genome modification” (Sigma-Aldrich Co. LLC).

T1: LrhCas9-NLS (Lactobacillus rhamnosus)
T1 chain: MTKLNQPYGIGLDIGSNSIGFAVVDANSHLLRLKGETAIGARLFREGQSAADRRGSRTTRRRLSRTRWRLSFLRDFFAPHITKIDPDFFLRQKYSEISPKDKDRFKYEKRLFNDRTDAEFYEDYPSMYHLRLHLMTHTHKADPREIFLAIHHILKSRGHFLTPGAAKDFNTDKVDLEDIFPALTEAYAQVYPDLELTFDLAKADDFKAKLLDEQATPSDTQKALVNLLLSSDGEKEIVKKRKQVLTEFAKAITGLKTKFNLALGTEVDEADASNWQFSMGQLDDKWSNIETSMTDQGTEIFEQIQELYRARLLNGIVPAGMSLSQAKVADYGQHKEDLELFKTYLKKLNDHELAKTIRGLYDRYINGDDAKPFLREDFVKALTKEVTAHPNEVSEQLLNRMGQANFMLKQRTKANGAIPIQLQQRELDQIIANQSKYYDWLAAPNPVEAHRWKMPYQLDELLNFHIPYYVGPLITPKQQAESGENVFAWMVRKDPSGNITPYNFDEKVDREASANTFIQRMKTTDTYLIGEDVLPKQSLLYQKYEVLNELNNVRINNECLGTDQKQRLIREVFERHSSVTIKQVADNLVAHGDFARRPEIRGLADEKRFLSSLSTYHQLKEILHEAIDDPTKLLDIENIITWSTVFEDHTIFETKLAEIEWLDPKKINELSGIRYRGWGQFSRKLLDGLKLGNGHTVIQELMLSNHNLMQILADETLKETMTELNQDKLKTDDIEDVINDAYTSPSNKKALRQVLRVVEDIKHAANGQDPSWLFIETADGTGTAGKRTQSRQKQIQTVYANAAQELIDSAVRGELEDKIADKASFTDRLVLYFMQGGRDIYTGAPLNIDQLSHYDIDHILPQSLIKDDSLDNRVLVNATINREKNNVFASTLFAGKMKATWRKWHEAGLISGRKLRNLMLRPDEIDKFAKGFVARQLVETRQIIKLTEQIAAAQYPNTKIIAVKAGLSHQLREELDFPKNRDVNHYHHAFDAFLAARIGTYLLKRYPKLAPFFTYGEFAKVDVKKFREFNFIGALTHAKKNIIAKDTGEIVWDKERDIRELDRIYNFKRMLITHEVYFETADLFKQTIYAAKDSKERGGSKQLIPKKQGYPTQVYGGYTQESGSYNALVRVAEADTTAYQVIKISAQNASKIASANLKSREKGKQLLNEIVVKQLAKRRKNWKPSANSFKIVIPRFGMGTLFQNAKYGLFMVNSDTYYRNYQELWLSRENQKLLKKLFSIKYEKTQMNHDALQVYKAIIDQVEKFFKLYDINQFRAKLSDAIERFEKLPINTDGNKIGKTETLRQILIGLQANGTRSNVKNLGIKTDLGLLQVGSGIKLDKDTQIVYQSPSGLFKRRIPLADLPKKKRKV

B1: Lrh POR target 1 sgRNA ; POR target 1 (ssRNA ; dsDNA)
RNA: GCUCGUACUGGCGAAUGCUGUCUCAGGUAGAUGUCAGAUCAAUCAGAAAUGAUUGAUCUGACAUCUACGAGUUGAGAUCAAACAAAGCUUCAGCUGAGUUUCAAUUUCUGAGCCCAUGUUGGGCCAUACAUAUGCCACCCGAGUGCAAAUCGGGUGGCUUUUUUU
DNA 1: GCTCGTACTGGCGAATGCTGGAAA
DNA 2: TTTCCAGCATTCGCCAGTACGAGC
B2: Lrh CAR target 2 sgRNA ; CAR target 2 (ssRNA ; dsDNA)
RNA: GUGAGAGUCUCCUCCCCAAUGGUCUCAGGUAGAUGUCAGAUCAAUCAGAAAUGAUUGAUCUGACAUCUACGAGUUGAGAUCAAACAAAGCUUCAGCUGAGUUUCAAUUUCUGAGCCCAUGUUGGGCCAUACAUAUGCCACCCGAGUGCAAAUCGGGUGGCUUUUUUU
DNA 1: GTGAGAGTCTCCTCCCCAATGGGAAA
DNA 2: TTTCCCATTGGGGAGGAGACTCTCAC

Biological target: T1, LrhCas9-NLS
Assay: cell_activity; PAM NGAAA; K562
Details: tags: C-terminal SV40 NLS

| Binder | activity |
| --- | --- |
| B1 | 26.7 % indel |
| B2 | 27 % indel |
